Test results from paper PMC5491494.

Target: hnRNPA1, endogenous, P09651
Test: cross-linking; DSG cross-linking, sample not named in the text (Supplementary Fig. 2a); nucleo-cytoplasmic fractionation; immunoblot, 4–12% denaturing polyacrylamide gels
Settings: remark: other sources report otherwise

- stoichiometry N: 2
B1: hnRNPA1, endogenous, P09651 1-372 (natural protein)
chain: MSKSESPKEPEQLRKLFIGGLSFETTDESLRSHFEQWGTLTDCVVMRDPNTKRSRGFGFVTYATVEEVDAAMNARPHKVDGRVVEPKRAVSREDSQRPGAHLTVKKIFVGGIKEDTEEHHLRDYFEQYGKIEVIEIMTDRGSGKKRGFAFVTFDDHDSVDKIVIQKYHTVNGHNCEVRKALSKQEMASASSSQRGRSGSGNFGGGRGGGFGGNDNFGRGGNFSGRGGFGGSRGGGGYGGSGDGYNGFGNDGGYGGGGPGYSGGSRGYGSGGQGYGNQGSGYGGSGSYDSYNNGGGGGFGGGSGSNFGGGGSYNDFGNYNNQSSNFGPMKGGNFGGRSSGPYGGGGQYFAKPRNQGGYGGSSSSSSYGSGRRF
